Assay results published in patent US12365732 (23ANDME, dated 2025).
Residue numbers refer to the chain shown, from its start. Names may count otherwise.

T1: hu-CD96 (soluble, isoform 2 extracellular domain) (human, UniProt P40200 22-516, biotinylated in Octet and blocking ELISA)
T1 construct: the assays name only hu-CD96; also called hCD96; biotinylated hu-CD96
T1 sequence: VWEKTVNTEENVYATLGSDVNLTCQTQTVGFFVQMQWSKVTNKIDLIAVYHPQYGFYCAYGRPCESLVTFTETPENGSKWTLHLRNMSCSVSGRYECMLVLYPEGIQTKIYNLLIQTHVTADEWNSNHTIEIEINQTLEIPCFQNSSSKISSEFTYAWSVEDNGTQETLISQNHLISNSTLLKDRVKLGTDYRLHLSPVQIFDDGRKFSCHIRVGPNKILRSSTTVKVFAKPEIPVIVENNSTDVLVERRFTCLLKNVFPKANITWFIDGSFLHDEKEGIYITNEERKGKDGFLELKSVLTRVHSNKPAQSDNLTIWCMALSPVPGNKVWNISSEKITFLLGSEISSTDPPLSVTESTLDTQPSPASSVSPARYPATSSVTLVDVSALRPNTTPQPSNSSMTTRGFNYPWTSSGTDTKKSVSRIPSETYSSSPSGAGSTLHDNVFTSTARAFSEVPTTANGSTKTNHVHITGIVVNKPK

T2: cy-CD96 (soluble, extracellular domain) (cynomolgus monkey, UniProt P40200 22-516 (human entry), biotinylated in Octet and blocking ELISA)
T2 construct: the assays name only cy-CD96; also called biotinylated cy-CD96
T2 chain: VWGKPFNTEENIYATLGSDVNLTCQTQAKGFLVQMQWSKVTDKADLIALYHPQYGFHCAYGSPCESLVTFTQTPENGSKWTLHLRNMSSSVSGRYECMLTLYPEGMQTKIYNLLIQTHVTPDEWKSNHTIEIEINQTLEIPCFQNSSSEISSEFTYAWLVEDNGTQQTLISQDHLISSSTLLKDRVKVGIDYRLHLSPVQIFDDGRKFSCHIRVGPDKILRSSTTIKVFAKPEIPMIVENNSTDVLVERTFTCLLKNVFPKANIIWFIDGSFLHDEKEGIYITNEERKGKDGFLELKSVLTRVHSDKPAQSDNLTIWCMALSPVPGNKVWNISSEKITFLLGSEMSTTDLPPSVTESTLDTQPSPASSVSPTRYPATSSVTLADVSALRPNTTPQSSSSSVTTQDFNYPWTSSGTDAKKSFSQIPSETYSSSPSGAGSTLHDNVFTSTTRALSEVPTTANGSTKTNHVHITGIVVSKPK

B1: mAb1.v7.6 Fab (Fab, V domains shown)
VH: EVQLVQSGAEVKKPGASVKVSCKASGFTFTNRWMHWVRQAPGQGLEWIGMIHVNSGITNINEKFKNRVTMTTDTSTSTAYMELRSLRSEDTAVYYCRSDGLYEGYFDYWGQGTLVTVSS
VL: DIQLTQSPSSLSASVGDRVTITCKASQNVGTAIVWYQQKPGKAPKVLIYSASTRYTGVPSRFSGSGSGTDFTLTISSLQPEDFATYYCQQYSSSPLTFGQGTKVEIK
notes: also called N32R/P52aV/T97L
B2: mAb1.v7.10 Fab (Fab, V domains shown)
VH: B1 VH with R32N, M34R, V53P, N54L, L101V
VL: B1 VL
notes: also called M34R/N53L/T97V
B3: mAb1.v7.21 Fab (Fab, V domains shown)
VH: B1 VH with R32Y, V53P, I60M, L101V
VL: B1 VL
notes: also called N32Y/I59M/T97V
B4: mAb1.v7.15 Fab (Fab, V domains shown)
VH: B1 VH with R32N, M34D, V53P, N54M, L101F
VL: B1 VL
notes: also called M34D/N53M/T97F
B5: mAb1.v7.59 Fab (Fab, V domains shown)
VH: B1 VH with R32N, M34N, V53P, N59A, S98L, L101T
VL: B1 VL
notes: also called M34N//N58A/S94L
B6: mAb1.v7.50 Fab (Fab, V domains shown)
VH: B1 VH with R32N, M34S, V53R, L101V
VL: B1 VL
notes: also called M34S/P52aR/T97V
B7: mAb1.v7.11 Fab (Fab, V domains shown)
VH: B1 VH with R32N, W33F, V53P, I57G, G100E, L101T
VL: B1 VL
notes: Fab with 8xHis tag
B8: mAb1.v7.24 Fab (Fab, V domains shown)
VH: B1 VH with R32N, M34G, V53R, L101I
VL: B1 VL
notes: also called M34G/P52aR/T97
B9: mAb1.v7.19 Fab (Fab, V domains shown)
VH: B1 VH with R32S, V53P, I60R, L101I
VL: B1 VL
notes: also called N32S/I59R/T97I
B10: mAb1.v7.14 Fab (Fab, V domains shown)
VH: B1 VH with T30V, R32N, V53P, I60T, L101I
VL: B1 VL
notes: also called T30V/I59T/T97I
B11: mAb1.v7.8 Fab (Fab, V domains shown)
VH: B1 VH with R32N, M34D, V53P, N54L, L101V
VL: B1 VL
notes: also called M34D/N53L/T97V
B12: mAb1.v7.NGS2 Fab (Fab, V domains shown)
VH: B1 VH with R32N, M50F, V53P, L101T
VL: B1 VL
notes: also called M50F
B13: mAb1.v7.NGS4 Fab (Fab, V domains shown)
VH: B1 VH with R32N, V53P, E62H, L101T
VL: B1 VL
notes: also called E61H
B14: mAb1.v7.NGS3 Fab (Fab, V domains shown)
VH: B1 VH with R32N, V53A, L101T
VL: B1 VL
notes: also called P52aA
B15: mAb1.v7.NGS5 Fab (Fab, V domains shown)
VH: B1 VH with R32N, V53P, E62R, L101T
VL: B1 VL
notes: also called E61R
B16: mAb1.v7.NGS6 Fab (Fab, V domains shown)
VH: B1 VH with R32N, V53P, L101I
VL: B1 VL
notes: Fab with 8xHis tag; also called T97I
B17: mAb1.v7.NGS7 Fab (Fab, V domains shown)
VH: B1 VH with R32N, V53P, L101V
VL: B1 VL
notes: also called T97V
B18: mAb1.v7.NGS1 Fab (Fab, V domains shown)
VH: B1 VH with R32N, W33F, V53P, L101T
VL: B1 VL
notes: also called W33F

Target: T1, hu-CD96 (soluble, isoform 2 …)
Assay: BLI (Octet), biotin-CD96 on SA, Fab analyte
Experimental: (§1) The binding affinity of the generated Fab variants of mAb1.v7 for hu-CD96 and cy-CD96 was determined by OCTET (Pall ForteBio) Bio-Layer Interferometry (BLI) binding analysis. The biotinylated hu-CD96 or biotinylated cy-CD96 was diluted to a final concentration 10 µg/mL in experimental buffer (PBS buffer with 0.01% Tween-20) and immobilized on the Streptavidin Capture (SA) biosensors (Pall ForteBio). Three-fold serial dilutions of the mAb1.v7 Fab variants starting at 1 µM as analytes were diluted in the experimental buffer (PBS buffer with 0.01% Tween-20). The biosensors were equilibrated in experimental buffer at 30° C. for ten minutes prior to starting the experiment. The kinetics experiment was performed with the following steps, where the step name, solution and time are listed: Baseline (buffer—60 seconds), Loading (biotinylated antigen—200 seconds), Baseline 2 (buffer—minimum 120 seconds), Association (analyte—200-300 seconds) and Dissociation (buffer—1000 seconds). The resulting BLI signal from analyte association and dissociation from the […] was analyzed using the Octet Data Analysis software (Pall ForteBio). First a reference subtraction was performed on all recorded traces using the reference well (biosensor that underwent same steps as experimental wells but no analyte for the Association step) and then all the traces were aligned to the beginning of the Association step. The entirety of the Association and Dissociation steps were used in a Global fit (minimum of four analyte concentration traces) in a 1:1 binding model to calculate the K_D values for the 16 selected individual mAb1.v7 Fab variants as summarized in Table 9 (below).

Kd [nM] | Binder
28.4 | B1
2.71 | B2
0.31 | B3
3 | B4
~0.1 | B5
4.16 | B6
156 | B7
0.31 | B8
0.63 | B9
~0.1 | B10
27 | B11

Target: T2, cy-CD96 (soluble, extracellular domain)
Assay: BLI (Octet), biotin-CD96 on SA, Fab analyte
Experimental: as §1

Kd [nM] | Binder
284 | B1
117 | B2
118 | B3
160 | B4
271 | B5
183 | B6
175 | B7
118 | B8
261 | B9
530 | B10
104 | B11

Target: T1, hu-CD96 (soluble, isoform 2 …)
Assay: phage competition ELISA, soluble CD96 vs coated hu-CD96
Experimental: (§2) 192 colonies from most stringent selections (biotinylated 0.1 nM of hu-CD96 or cy-CD96 with 1000× non-biotinylated human or cy-CD96) were grown in 400 µL 2YT with 4 µL helper phage M13KO7 overnight at 37° C. with shaking. After spinning down the pellet, the phage supernatant was diluted 1:1 with 2 nM hu-CD96, 20 nM cy-CD96 and ELISA buffer (0.5% BSA and 0.05% TWEEN®20 in PBS) in total […] and incubated for two hours at room temperature with agitation. The […] of mixture was transferred to hu-CD96 coated plate for 15 min to capture unbound phage. The plate was washed with wash buffer (0.05% TWEEN®20 in PBS), and HRP-conjugated anti-M13 antibody (Sino biological, Cat #11973-MM05-H-50) was added in ELISA buffer for 30 min. […] Enzymatic color development was stopped using TMB stop solution (VWR, Cat #95059-200). Plates were analyzed with a SpectraMax i3X plate reader (Molecular Devices). The % inhibition was calculated by the $OD450$ of wells with hu-CD96/cy-CD96 competitor divided by $OD450$ of wells with buffer alone. The lower % inhibition indicated higher phage $IC50$ against hu-CD96 or cy-CD96.
(§3) Selected top inhibition % phage variants from single spot competition were purified from culture supernatants. The optimal phage concentration was incubated with serially-diluted hu-CD96 or cy-CD96 in ELISA buffer in NUNC F plate for two hours. The […] of the mixture was transferred to hu-CD96 coated wells for 15 min to capture unbound phage. The plate was washed with wash buffer (0.05% TWEEN®20 in PBS), and HRP-conjugated anti-M13 antibody (Sino biological, Cat #11973-MM05-H-50) was added in ELISA buffer for 30 min. The plates were washed and developed as described above. The absorbance at 450 nm was plotted as a function of antigen concentration in solution to determine phage $IC50$.

IC50 [nM] | Binder
0.16 | B1
0.19 | B2
0.15 | B3
0.19 | B4
0.1 | B5
0.1 | B6
0.23 | B7
0.2 | B8
0.23 | B9
0.1 | B10
0.17 | B11

Target: T2, cy-CD96 (soluble, extracellular domain)
Assay: as above
Experimental: as §2, §3

IC50 [nM] | Binder
0.15 | B1
0.76 | B2
0.91 | B3
1.85 | B4
1.6 | B5
0.9 | B6
0.24 | B7
0.6 | B8
0.84 | B9
1 | B10
0.45 | B11

Target: T1, hu-CD96 (soluble, isoform 2 …)
Assay: BLI (Octet), biotin-CD96 on SA, Fab analyte
Remark: another data set of the same source

Kd [nM] | Binder
63 | B12
31.5 | B13
0.1 | B14
43.6 | B15
5.32 | B16
5.61 | B17
49 | B18

Target: T2, cy-CD96 (soluble, extracellular domain)
Assay: BLI (Octet), biotin-CD96 on SA, Fab analyte
Remark: another data set of the same source

Kd [nM] | Binder
~100 | B12
739 | B13
~1000 | B14
85 | B15
289 | B16
383 | B17
271 | B18
